Test results: patent US20230220346A1, “BIOLOGICALLY SYNTHESIZED HYDROXYAPATITE FOR BONE REGENERATION AND TISSUE ENGINEERING” (BIOVENTURES, LLC, priority 2019, published 2023)

How the values were obtained:
Saos-2 cell line = test: Alizarin Red S (ARS) biomineralization assay in Saos-2; assay type: cell-based, human; details: MEMα/10% FBS with βGP (2 mM) plus the ALP (1 U/mL), 7 days
Method: (§1) Biomineralization assays and Alizarin Red S staining: All human and mouse cell lines and human peripheral blood mononuclear cells (MNCs) were maintained in MEMα/10% FBS with penicillin/streptomycin and glutamine in a 37° C. humidified incubator with 5% CO2. […] The medium was replaced after 4 days. Alizarin Red S staining was performed at room temperature by removing the culture medium, washing the cells twice with 1×PBS (pH 7.4), fixing the cells in 10% neutral buffered formalin (Richard-Allan Scientific, Kalamazoo, Mich., USA) for 30 min, rinsing twice with Milli-Q water, staining with Alizarin Red S for 30 min, and destaining twice in Milli-Q water. A ZEISS inverted fluorescence/brightfield microscope equipped with an Infinity 3 digital camera and software system was used for imaging.

MG-63 cell line = test: Alizarin Red S (ARS) biomineralization assay in MG-63; assay type: cell-based, human; details: MEMα/10% FBS with βGP (2 mM) plus the ALP (1 U/mL), 7 days
Method: as §1

[1] = test system: MG-63 and Saos-2 cell lines; test: Alizarin Red S biomineralization assay: phosphate source comparison, titration, ascorbic acid (FIG. 1A, 1C, 1E-G); assay type: cell-based, human; details: FIG. 1E-G
Method: as §1

[2] = test system: human blood mononuclear cells (MNCs); test: Alizarin Red S biomineralization assay in human blood mononuclear cells; assay type: cell-based; details: MEMα/10% FBS with αGP alone or CIP alone (the other missing), 7 days
Method: as §1
Coating cell culture plate with Collagen Type I, rat tail for mineralization assays: To coat a 48-well plate with Collagen Type I at 5 μg/cm^2, the stock solution was diluted to 25 μg/mL in 17.5 mM of acetic acid and aliquoted […] into each well. After incubating at room temperature for one hour, the Collagen Type I solution was removed. Each well was rinsed with 1×PBS (pH 7.4) and air-dried at room temperature. Human blood MNCs were suspended in the conditioned media and distributed into each well (1×10^5 cell/well) prior to a 7-day incubation. […]

Molecule	biomineralization (Alizarin Red S staining) (Saos-2 cell line)	biomineralization (Alizarin Red S staining) (MG-63 cell line)	dose dependence of biomineralization (titration assays) [1]	biomineralization (Alizarin Red S staining) [2]
ALPL: Recombinant human tissue-nonspecific alkaline phosphatase (R&D Systems) (protein, listed as Homo sapiens, (1)..(524) Human tissue nonspecific alkaline phosphatase (ALPL)) MISPFLVLAIGTCLTNSLVPEKEKDPKYWRDQAQETLKYALELQKLNTNVAKNVIMFLGDGMGVSTVTAARILKGQLHHNPGEETRLEMDKFPFVALSKTYNTNAQVPDSAGTATAYLCGVKANEGTVGVSAATERSRCNTTQGNEVTSILRWAKDAGKSVGIVTTTRVNHATPSAAYAHSADRDWYSDNEMPPEALSQGCKDIAYQLMHNIRDIDVIMGGGRKYMYPKNKTDVEYESDEKARGTRLDGLDLVDTWKSFKPRYKHSHFIWNRTELLTLDPHNVDYLLGLFEPGDMQYELNRNNVTDPSLSEMVVVAIQILRKNPKGFFLLVEGGRIDHGHHEGKAKQALHEAVEMDRAIGQAGSLTSSEDTLTVVTADHSHVFTFGGYTPRGNSIFGLAPMLSDTDKKPFTAILYGNGPGYKVVGGERENVSMVDYAHNNYQAQSAVPLRHETHGGEDVAVFSKGPMAHLLHGVHEQNYVPHVMAYAACIGANLGHCAPASSAGSLAAGPLLLALALYPLSVLF	biomineralization was observed	biomineralization was observed		
CIP: calf intestinal alkaline phosphatase (protein, listed as Bos taurus, (1)..(533) Bovine intestine alkaline phosphatase (CIP)) MQGACVLLLLGLHLQLSLGLVPVEEEDPAFWNRQAAQALDVAKKLQPIQTAAKNVILFLGDGMGVPTVTATRILKGQMNGKLGPETPLAMDQFPYVALSKTYNVDRQVPDSAGTATAYLCGVKGNYRTIGVSAAARYNQCKTTRGNEVTSVMNRAKKAGKSVGVVTTTRVQHASPAGAYAHTVNRNWYSDADLPADAQMNGCQDIAAQLVNNMDIDVILGGGRKYMFPVGTPDPEYPDDASVNGVRKRKQNLVQAWQAKHQGAQYVWNRTALLQAADDSSVTHLMGLFEPADMKYNVQQDHTKDPTLQEMTEVALRVVSRNPRGFYLFVEGGRIDHGHHDDKAYMALTEAGMFDNAIAKANELTSELDTLILVTADHSHVFSFGGYTLRGTSIFGLAPSKALDSKSYTSILYGNGPGYALGGGSRPDVNDSTSEDPSYQQQAAVPQASETHGGEDVAVFARGPQAHLVHGVEEETFVAHIMAFAGCVEPYTDCNLPAPTTATSIPDAAHLAASPPPLALLAGAMLLLLAPTLY	mineralized	mineralized	depended on the doses	did not occur
SAP: shrimp hepatopancreas alkaline phosphatase (protein, listed as Pandalus borealis, (1)..(404) Shrimp alkaline phosphatase (rSAP)) MIGRTTFIALFVKVLTIWSFTKGEDCVWDNDVDYPEYPPLILDSSFQLVLPVLEGDQRITSVQSGSELILACPGREISALGSEDAQATCLGGKLVEVDGKEWNIVELGCTKMASETIHRNLGQCGDQDLGIYEVIGFDLPTTGHFYELIRVCFDPANETTIFSENIVHGASIAAKDIDPGRPSFKTSTGFFSVSMISVYSQRNQLELMKNLLGDDELAATIIDPSKQFYFAKGHMAPDADFVTVVEQDATYYYINALPQWQAFNNGNWKYLEYDTRDLAEKHGTDLTVYSGGWGVLELEDINGNPVEIYLGLAQDKKVVPAPALTWKVIYEKDTNRAAAIVGINNPHITTAPEPLCTDICSSLTWLDFDFGDLVHGYTYCCSVADLRAAIPNVPDLGDVDILDE	mineralized	mineralized		
